In general, stoichiometry N refers to a count of units in the complex or per binding partner.

Common to all, as to assay: mass photometry; (N8-)CRL2^FEM1B wild type or mutant alone; 2 µL of 10 nM protein added to 18 μL of 50 mM HEPES pH 7.5, 150 mM NaCl
In assay [1] the target is CRL2^FEM1B complex with FEM1B^F549S, unneddylated (human) (UniProt Q13617).
For assay [2], the target named is CRL2^FEM1B complex with FEM1B^F549T, unneddylated (human) (UniProt Q13617).
Assay [3] addresses CRL2^FEM1B complex with FEM1B^F549R, unneddylated (human) (UniProt Q13617).

In turn, “CRL2^FEM1B complex with FEM1B^F549S, unneddylated (from UniProt Q13617 1-745; P62877 1-108; Q15370 1-104; Q15369 17-112; Q9UK73 1-627)” had a stoichiometry N in assay [1] of 2.
In assay [2], “CRL2^FEM1B complex with FEM1B^F549T, unneddylated (from UniProt Q13617 1-745; P62877 1-108; Q15370 1-104; Q15369 17-112; Q9UK73 1-627)” came in with a stoichiometry N of 2.
For the substance “CRL2^FEM1B complex with FEM1B^F549R, unneddylated (from UniProt Q13617 1-745; P62877 1-108; Q15370 1-104; Q15369 17-112; Q9UK73 1-627)”, in assay [3], the stoichiometry N came to 2.
